In the DeepSol protein solubility set:

Assay: soluble on expression in E. coli; label from the status in PepcDB or PDB records

| Sequence | soluble on expression in E. coli |
| --- | --- |
| LSGSIYVLGGGENLKVTMMDAALKYAEANIPVIPLHWICEDGSCSCKTRSDCDSKGKHSLYTGWYNNSTTDVEQIRKWWTNVNVNKNLVLSKVS | not soluble |
| LSYPNATESVYGLTRYSTNDEAIAGVNNESSITPAKFTVALNNVFETRVSTESSNGVIKISSLPQALAGADDTTAMTPLKTQQLAVKLIAQIAPSKNAATESEQGVIQLATVAQARQGTLREGYAISPYTFMNSTATEEYKGVIKLGTQSEVNSNNASVAVTGATLNGRGSTTSMRGVVKLTTTAGSQSGGDASSALAWNADVIHQRGGQTINGTLRINNTLTIASGGANITGTVNMTGGYIQGKRVVTQNEIDRTIPVGAIMMWAADSLPSDAWRFCHGGTVSASDCPLYASRIGTRYGGSSSNPGLPDMR | soluble |
| LTFSLNFATSSKDSYGTGWLIDWKGDENKPSNTDPFLIYLATNLHVVDALRNPQDYEPYNKDSNGQDYGNRDITHFFALGKYTDPGLLGVETKE | soluble |
| LVQGPSLIGIHANEREDIETKKFVNWYLNTKVQWEENSIKTPAEYVADKASYLLPFKNRLNNTNSYNEFVKTAVSQFADKNVTKFAEPADFLSNKVRD | not soluble |
| LYRKGGVYVVIGGAGYIGEAWSEYMIRRYQAQIVWIGRSQLNAAIQSKIDRLSALGPEPFYIAADAADKHSLQQAYEQVKKRHPHIHGIVHSAMVLFEQSLEKMKPEEFTAGLAAKIDVSIRMAQVFRQENVDFVLFFSSLVAHIKNVKQSHYASGCTFADAFAHQLSQSWA | not soluble |
| LYWGDGQVWFDLPDKVTTHDSQLVGNLTELLKSVEHSFVLISPYFIPTEAGTKALTNAAKRGVDITIVTNSLASNDVFAVHGWYAKYREDLLESGIKLWEVKSSAKLKSKWSLTGSSRASLHAKAMTIDDKTLFVGSMNWDPRSAALNTEMAVVIEQPEYVQAFLAKLPSQLKDNAYRLTLRDGDIVWTNTKTGEEYDSEPEAGVFRRLGAWFSGILPIEDQL | not soluble |
| MAAAALRSGWCRCPRRCLGSGIQFLSSHNLPHGSTYQMRRPGGELPLSKSYSSGNRKGFLSGLLDNVKQELAKNKEMKESIKKFRDEARRLEESDVLQEARRKYKTIESETVRTSEVLRKKLGELTGTVKESLHEVSKSDLGRKIKEGVEEAAKTAKQSAESVSKGGEKLGRTAAFRALSQGVESVKKEIDDSVLGQTGPYRRPQRLRKRTEFAGDKFKEEKVFEPNEEALGVVLHKDSKWYQQWKDFKENNVVFNRFFEMKMKYDESDNAFIRASRALTDKVTDLLGGLFSKTEMSEVLTEILRVDPAFDKDRFLKQCENDIIPNVLEAMISGELDILKDWCYEATYSQLAHPIQQAKALGLQFHSRILDIDNVDLAMGKMVEQGPVLIITFQAQLVMVVRNPKGEVVEGDPDKVLRMLYVWALCRDQDELNPYAAWRLLDISASSTEQIL | soluble |
| MAAAGQEKGYLTQTAAALDKSPSLSPQLAAPIRGRPKKCLVYPHAPKSSRLSRSVLRWLQGLDLSFFPRDINRDFSNGFLIAEIFCIYYPWELELSSFENGTSLKVKLDNWAQLEKFLARKKFKLPKELIHGTIHCKAGVPEILIEEVYTLLTHREIKSIQDDFVNFTDYSYQMRLPLVSRSTVSKSIKDNIRLSELLSNPNMLTNELKAEFLILLHMLQRKLGRKLNPEWFDVKPTVGEVTLNHLPAQASGRRYNLKVKRGRVVPVLPNIGSGGSSHREIHVKQAGQHSYYSAMKPIRNMDKKP | soluble |
| MAAASAVSVLLVAAERNRWHRLPSLLLPPRTWVWRQRTMKYTTATGRNITKVLIANRGEIACRVMRTAKKLGVQTVAVYSEADRNSMHVDMADEAYSIGPAPSQQSYLSMEKIIQVAKTSAAQAIHPGCGFLSENMEFAELCKQEGIIFIGPPPSAIRDMGIKSTSKSIMAAAGVPVVEGYHGEDQSDQCLKEHARRIGYPVMIKAVRGGGGKGMRIVRSEQEFQEQLESAWREAKKSFNDDAMLIEKFVDTPRHVEVQVFGDHHGNAVYLFERDCSVQRRHQKIIEEAPAPGIKSEVRKKLGEAAVRAAKAVNYVGAGTVEFIMDSKHNFCFMEMNTRLQVEHPVTEMITGTDLVEWQLRIAAGEKIPLSQEEITLQGHAFEARIYAEDPSNNFMPVAGPLVHLSTPRADPSTRIETGVRQGDEVSVHYDPMIAKLVVWAADRQAALTKLRYSLRQYNIVGLPTNIDFLLNLSGHPEFEAGNVHTDFIPQHHKQLLLSRKAAAKESLCQAALGLILKEKAMTDTFTLQAHDQFSPFSSSSGRRLNISYTRNMTLKDGKNNVAIAVTYNHDGSYSMQIEDKTFQVLGNLYSEGDCTYLKCSVNGVASKAKLIILENTIYLFSKEGSIEIDIPVPKYLSSVSSQETQGGPLAPMTGTIEKVFVKAGDKVKAGDSLMVMIAMKMEHTIKSPKDGTVKKVFYREGAQANRHTPLVEFEEEESDKRESE | soluble |
| MAAEDELQLPRLPELFETGRQLLDEVEVATEPAGSRIVQEKVFKGLDLLEKAAEMLSQLDLFSRNEDLEEIASTDLKYLLVPAFQGALTMKQVNPSKRLDHLQRAREHFINYLTQCHCYHVAEFELPKTMNNSAENHTANSSMAYPSLVAMASQRQAKIQRYKQKKELEHRLSAMKSAVESGQADDERVREYYLLHLQRWIDISLEEIESIDQEIKILRERDSSREASTSNSSRQERPPVKPFILTRNMAQAKVFGAGYPSLPTMTVSDWYEQHRKYGALPDQGIAKAAPEEFRKAAQQQEEQEEKEEEDDEQTLHRAREWDDWKDTHPRGYGNRQNMGLEHHHHHH | soluble |
| MAAERVFISPAKYVQGKNVITKIANYLEGIGNKTVVIADEIVWKIAGHTIVNELKKGNIAAEEVVFSGEASRNEVERIANIARKAEAAIVIGVGGGKTLDTAKAVADELDAYIVIVPTAASTDAPTSALSVIYSDDGVFESYRFYKKNPDLVLVDTKIIANAPPRLLASGIADALATWVEARSVIKSGGKTMAGGIPTIAAEAIAEKCEQTLFKYGKLAYESVKAKVVTPALEAVVEANTLLSGLGFESGGLAAAHAIHNGFTALEGEIHHLTHGEKVAFGTLVQLALEEHSQQEIERYIELYLCLDLPVTLEDIKLKDASREDILKVAKAATAEGETIHNAFNVTADDVADAIFAADQYAKAYKEKHRK | soluble |
| MAAHSSAGLLDYVFPTIVSEYYNQAPTKEGYRFASEEPNGSKREEMGVIMNPGTPDEQLVVMGMYSSYDEKTDTETVTMYTADKDGYKARYQIKNRKLSPGALKSAAGLEHHHHHH | not soluble |
| MAAKKRGLGRGLDALLGGSSPAKLQEEAVQADRRELQQIPLDLMQRGKYQPRRDMDPQALEELAQSIKAQGVMQPIVVRPIANGRYEIIAGERRWRASQQAGLEKIPALVRDVPDEAAIAMALIENIQREDLNPIEEAAALQRLQQEFQLTQQQVAEAVGKSRATITNLLRLIGLPEEIKTLLSHGDLEMGHARALLGLPAERQVEGARHVVAHGLTVRQTEALVRQWTHAPGKPAGPVKSDPDIARLEQRLAERLGASVQIRHGQKGKGQLVIRYSSLDELQGVLAHIR | not soluble |
| MAANSTRRPIIAFMSDLGTTDDSVAQCKGLMYSICPDVTVVDVCHSMTPWDVEEGARYIVDLPRFFPEGTVFATTTYPATGTTTRSVAVRIKQAAKGGARGQWAGSGAGFERAEGSYIYIAPNNGLLTTVLEEHGYLEAYEVTSPKVIPEQPEPTFYAREMVAIPSAHLAAGFPLSEVGRPLEDHEIVRFNRPAVEQDGEALVGVVSAIDHPFGNVWTNIHRTDLEKAGIGYGARLRLTLDGVLPFEAPLTPTFADAGEIGNIAIYLNSRGYLSIARNAASLAYPYHLKEGMSARVEAR | soluble |
| MAATSGTDEPVSGELVSVAHALSLPAESYGNDPDIEMAWAMRAMQHAEVYYKLISSVDPQFLKLTKVDDQIYSEFRKNFETLRIDVLDPEELKSESAKEKWRPFCLKFNGIVEDFNYGTLLRLDCSQGYTEENTIFAPRIQFFAIEIARNREGYNKAVYISVQDKEGEKGVNNGGEKRADSGEEENTKNGGEKGADSGEEKEEGINREDKTDKGGEKGKEADKEINKSGEKAM | soluble |
| MAATVVIVAWIANRPPASSHEPSPTPNTQLAEQPLIGLGGGVTVRELTQDTPFSLVALTGDLAGTSARVRAKRPDGDWGPWYQTEYETEPRDPAGTDGSVELGGLNPGPRSTDPVFVGTTTTVQVAVTRPIDAPITQPPAGRPPNDLLDSGLGYRPATKEQPFGQNISAILISPPQAPPGTQWTPPTAVTMAGQPPAIISRAEWGADESLRCETPEYDRGVRAAVVHHTAGSNDYSPLESAGIVKAIYTYHSKTLGWCDIAYNALVDKYGQVFEGSAGGLTKPVEGFHTGGFNRNTWGVAMIGNFDDVAPTPIQIRTVGRLLGWRLGMDDVDPRSMVDLQSAGSSYTTFPGGAIARLPAIFTHRDVGNTDCPGNAAYAVMDEIRDIAAHFNDPPEELIKALEGGAIYQRWQALGGMNSALGAPTSPEADAADGARYATFAKGAMYWSPVTDAQPITGAIYEAWASQSYERGPLGLPTSAEIQEPLQITQNFQHGTLNFERLTGNVTEVVDGITTPLATRPPSGPTVPPEHFTLPTHPIT | soluble |
| MAAVKDSCGKGEMATGNGRRLHLGIPEAVFVEDVDSFMKQPGNETADTVLKKLDEQYQKYKFMELNLAQKKRRLKGQIPEIKQTLEILKYMQKKKESTNSMETRFLLADNLYCKASVPPTDKVCLWLGANVMLEYDIDEAQALLEKNLSTATKNLDSLEEDLDFLRDQFTTTEVNMARVYNWDVKRRNKDDSTKNKA | not soluble |
| MACPEATFFHRAGWKQVIEQAFGHKTWFLYIEEGGCIQGVLPLAEIDSLLFGHSLSALPFCVYGGIAAISDDARIRLDQAAQMLATYLKVDYLEYRHLHPFHHDWPTKDLYVTFRKTMDSDVEQNMLAIPRKQRAMVRKGMKYELQSYLDQDTDHFFRAYSASVHRLGTPVFSRKYFRLLKSVFAEDCELLIITKDENVVSAVMSFYFRDEVLPYYGGGTDAARDLAGNDFMYWELMRRACERGYRVFDFGRSKRGTGSYSFKKNWGFEPQPLFYEYQLHQAKTIPEHNPLNPKYQLFIKAWQKMPLALANMLGPHIVKNLG | not soluble |
| MADADLVMTGTVLTVDDARPTAEAIAVADGRVIAVGDRSEVAGLVGANTRVIDLGAGCVMPGFVEAHGHPLLEAVVLSDRFVDIRPVTMRDADDVVAAIRGEVARRGPAGAYLVGWDPLLQSGLGEPTLTWLDSLAPNGPLVIIHNSGHKAYFNSHAAWLNGLTRDTADPKGAKYGRDGNGELDGTAEEIGAILPLLAGVADPSNFGAMLRAECARLNRAGLTTCSEMAFDPGYRPMVEAVRAELTVRLCTYEISNARMCTDATPGQGDDMLRQVGIKIWVDGSPWVGNIDLTFPYLDTPATRAIGVPPGSRGCANYTREQLAEIVGAYFPRGWQIACHVHGDGGVDTILDVYEEALRRNPRDDHRLRLEHVGAIRPDQLRRAAELGVTCSIFVDQIHYWGDVIVDDLFGAQRGSRWMPAGSAVAAGMRISLHNDPPVTPEEPLRNISVAATRVAPSGRVLAPEERLTVEQAIRAQTIDAAWQLFAEDAIGSLQVGKYADMVVLSADPRTVPPEQIADLAVRATFLAGRQVYRRLEHHHHHH | not soluble |
| MADDGPIIEEIAEKNGRVARIMQRLQHDTQRVTSVPGFNTSATGYADLIALLDQYKNDLEAVGFNDLEQARRRAPSVDITVGSNSTNLVDYSHGRHDMPSHRRHDSSDEEITAANSHHQSPINVGNRNDTDGTNGRNGSRAGSSSSDRVRMIAGRNRISKTRRYRPGQKALEEIRKYQESEDLLIPKAPFARLVREIMQTSTPFSSDLRIRSDAINALQEASEALLVQMFDGSSLISAHSKRATLTTTDVQLYRRLCLPNL | not soluble |
| MADHAHNLRATFGHGRPIGVITRGTTGFNRLRRCDRWMAHHPLIQQALRRTSDPIALDVGYGASFTTTVEWARWLRTMRDDVRVTGLEIDPERVLPPRDGVTFELGGFELAGYQPTLVRAFNVLRQYDVDQVMDAWEMVTSRLQPGGFFVEGTCDELGRRSTWVLLNHAGPQSLTLCWDPFDVERPSDIAERLPKILIHRNVAGEKIHDVLLRTDEAWDRCAPWASYGPRVRWRAARAMLMDMGIPMSIIRRPVRDNQLTVPWSIVDPTT | not soluble |
